Test [1] concerns the target T1, CD137 on Jurkat reporter cells (Promega kit CS196005) (UniProt Q07011 24-255, limits assumed). The test can be described thus: cell-based or functional assay.
In another test the target is T2, GPR39 (human, UniProt O43194).
T2 construct: full-length protein over-expressed in HEK293 cells
T2 sequence (single chain, looked up): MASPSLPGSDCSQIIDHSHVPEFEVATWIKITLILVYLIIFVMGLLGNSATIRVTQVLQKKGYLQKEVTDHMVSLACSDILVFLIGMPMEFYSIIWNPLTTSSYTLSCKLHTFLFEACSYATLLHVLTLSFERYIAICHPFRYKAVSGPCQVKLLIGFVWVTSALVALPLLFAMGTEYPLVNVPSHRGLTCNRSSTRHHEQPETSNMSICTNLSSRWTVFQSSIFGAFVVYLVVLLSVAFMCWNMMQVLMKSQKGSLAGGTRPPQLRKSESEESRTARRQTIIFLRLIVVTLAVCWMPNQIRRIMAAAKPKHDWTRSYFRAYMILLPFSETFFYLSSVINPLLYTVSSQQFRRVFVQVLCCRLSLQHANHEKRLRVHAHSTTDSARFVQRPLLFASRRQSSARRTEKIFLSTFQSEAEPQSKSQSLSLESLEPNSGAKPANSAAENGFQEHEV
Nature of the test: Retrogenix cell microarray, HEK293 cells over-expressing the protein, detection with AlexaFluor647 streptavidin.

Another test deals with T3, HMGB2 (human, UniProt P26583).
T3 construct: full-length protein over-expressed in HEK293 cells
T3 sequence (single chain, looked up): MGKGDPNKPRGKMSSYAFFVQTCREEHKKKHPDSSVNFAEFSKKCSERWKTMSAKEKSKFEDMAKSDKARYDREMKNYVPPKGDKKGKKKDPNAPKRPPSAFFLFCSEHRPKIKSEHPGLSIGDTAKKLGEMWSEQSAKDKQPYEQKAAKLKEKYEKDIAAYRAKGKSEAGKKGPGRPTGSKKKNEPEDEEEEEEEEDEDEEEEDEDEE
The description is as above.

The next test deals with T4, METTL24 (human, UniProt Q5JXM2).
T4 construct: full-length protein over-expressed in HEK293 cells
T4 sequence (single chain, looked up): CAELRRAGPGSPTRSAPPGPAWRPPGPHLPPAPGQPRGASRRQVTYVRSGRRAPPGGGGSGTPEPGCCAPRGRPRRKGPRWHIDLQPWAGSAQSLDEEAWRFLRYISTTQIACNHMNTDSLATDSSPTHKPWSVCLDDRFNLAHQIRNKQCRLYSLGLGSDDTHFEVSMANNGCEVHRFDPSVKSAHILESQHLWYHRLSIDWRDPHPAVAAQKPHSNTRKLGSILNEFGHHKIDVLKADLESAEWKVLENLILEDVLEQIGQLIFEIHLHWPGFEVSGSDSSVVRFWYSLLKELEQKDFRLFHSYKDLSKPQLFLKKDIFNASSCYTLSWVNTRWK
The description is as above.

For the next test, the target named is T5, IGFBP1 (human, UniProt P08833).
T5 construct: full-length protein over-expressed in HEK293 cells
T5 sequence (single chain, looked up): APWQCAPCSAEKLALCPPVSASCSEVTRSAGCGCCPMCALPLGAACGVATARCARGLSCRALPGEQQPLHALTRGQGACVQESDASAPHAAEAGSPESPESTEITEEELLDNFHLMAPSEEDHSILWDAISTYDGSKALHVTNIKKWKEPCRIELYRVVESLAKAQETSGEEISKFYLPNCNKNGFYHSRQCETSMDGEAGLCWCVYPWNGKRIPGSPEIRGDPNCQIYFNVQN
Described as above.

The target in the next test is T6, APLN (human, UniProt Q9ULZ1).
T6 construct: full-length protein over-expressed in HEK293 cells
T6 sequence (single chain, looked up): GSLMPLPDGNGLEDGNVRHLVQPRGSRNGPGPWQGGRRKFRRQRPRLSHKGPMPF
The description is as above.

The target of another test is T7, EVA1C (human, UniProt P58658).
T7 construct: full-length protein over-expressed in HEK293 cells
T7 sequence (single chain, looked up): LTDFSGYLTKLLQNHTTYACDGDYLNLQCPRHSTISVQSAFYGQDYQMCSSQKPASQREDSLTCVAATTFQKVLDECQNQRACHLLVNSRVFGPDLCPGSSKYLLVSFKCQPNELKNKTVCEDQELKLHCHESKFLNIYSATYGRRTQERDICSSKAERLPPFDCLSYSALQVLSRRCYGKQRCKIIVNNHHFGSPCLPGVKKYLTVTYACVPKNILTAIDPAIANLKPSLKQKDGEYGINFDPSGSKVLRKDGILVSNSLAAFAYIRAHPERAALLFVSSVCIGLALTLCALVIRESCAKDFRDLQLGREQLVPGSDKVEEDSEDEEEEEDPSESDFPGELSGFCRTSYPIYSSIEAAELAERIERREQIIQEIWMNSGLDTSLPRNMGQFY
The description is as above.

For test [2], the target named is T8, mouse CD137 extracellular domain (mouse, UniProt P20334 24-187).
T8 construct: extracellular domain
T8 sequence (looked up): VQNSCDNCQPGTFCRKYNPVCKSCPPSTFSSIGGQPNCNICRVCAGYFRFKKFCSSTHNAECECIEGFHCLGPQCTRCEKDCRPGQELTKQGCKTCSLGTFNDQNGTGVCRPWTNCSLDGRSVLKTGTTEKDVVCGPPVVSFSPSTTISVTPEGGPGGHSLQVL
Nature of the test: SPR direct binding, captured BCY13582, n = 1.

For test [3], the target named is T9, rat CD137 extracellular domain (rat, UniProt Q4W8J3 24-189).
T9 sequence: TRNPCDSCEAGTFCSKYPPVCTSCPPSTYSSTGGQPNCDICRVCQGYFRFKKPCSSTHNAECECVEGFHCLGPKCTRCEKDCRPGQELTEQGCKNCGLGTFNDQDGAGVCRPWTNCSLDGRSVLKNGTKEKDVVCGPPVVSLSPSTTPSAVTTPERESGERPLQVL
Nature of the test: SPR direct binding, captured BCY13582, n = 1.

The target in test [4] is T1, CD137 on Jurkat reporter cells (Promega …). Nature of the test: cell-based or functional assay. This is another data set of the same source.
The target of another test is T10, soluble CD40 (UniProt P25942 21-193, limits assumed).
T10 construct: also called soluble TNF family receptor CD40
Nature of the test: SPR, streptavidin captured BCY13582, soluble receptor. For orientation: SPR reads the build-up and loss of mass on a sensor chip optically.

The next test concerns the target T11, soluble OX40 (UniProt P43489 29-216, limits assumed).
T11 construct: also called soluble TNF family receptor OX40
T11 sequence (looked up): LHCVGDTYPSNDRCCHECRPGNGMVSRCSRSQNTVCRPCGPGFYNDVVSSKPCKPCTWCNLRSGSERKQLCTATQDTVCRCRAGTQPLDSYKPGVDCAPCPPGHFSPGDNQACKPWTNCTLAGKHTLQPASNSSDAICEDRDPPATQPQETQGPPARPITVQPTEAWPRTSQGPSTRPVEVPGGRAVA
The description is as above.

For test [5], the target named is T12, cyno (NHP) CD137 extracellular domain (cyno (NHP), UniProt A9YYE7 24-186).
T12 construct: extracellular domain
Nature of the test: SPR direct binding, captured BCY13582, soluble CD137 ECD, n = 1.

Test [6] addresses T13, human CD137 extracellular domain (human, UniProt Q07011 24-186, biotinylated where captured on the streptavidin chip).
T13 construct: extracellular domain; Section 17 says only 'Recombinant human CD137 (R&D systems)'; also called CD137 (human); Recombinant human CD137 (R&D systems)
The test can be described thus: SPR direct binding, captured BCY13582, soluble CD137 ECD, n = 3.

Starred links: 1 amine or outer side, 2 acyl side, 3 side chain; linkers in the order of their positions; H or OH if unused. Positions of bridges follow the written chain, without caps; N, C: chain ends. Non-standard residues stand in square brackets, D forms with d. Groups on a side chain read outwards from the residue. Primed or numbered codes have the meaning given here. Chains are numbered I, II in the order given. No end group written: not given here. *: point of attachment. dLys(PYA) = D-lysine Nε-acylated with 4-pentynoic acid, clicked (triazole) to the linker azide, O=C(CCc1cn([*:3])nn1)NCCCC[C@@H](N[*:1])C(=O)[*:2]; TATA = O=C(CC[*:1])N1CN(C(=O)CC[*:2])CN(C(=O)CC[*:3])C1; Biotin = O=C1N[C@H]2[C@H](CS[C@H]2CCCCC(=O)*)N1; 1Nal = N[C@@H](Cc1cccc2ccccc12)C(=O)O; Hyp = O=C(O)[C@@H]1C[C@@H](O)CN1; hArg = N=C(N)NCCCC[C@H](N)C(=O)O; tBuAla = CC(C)(C)C[C@H](N)C(=O)O; PEG12′ = not defined here; Nle = CCCC[C@H](N)C(=O)O

T1 sequence (Q07011 24-255 limits assumed): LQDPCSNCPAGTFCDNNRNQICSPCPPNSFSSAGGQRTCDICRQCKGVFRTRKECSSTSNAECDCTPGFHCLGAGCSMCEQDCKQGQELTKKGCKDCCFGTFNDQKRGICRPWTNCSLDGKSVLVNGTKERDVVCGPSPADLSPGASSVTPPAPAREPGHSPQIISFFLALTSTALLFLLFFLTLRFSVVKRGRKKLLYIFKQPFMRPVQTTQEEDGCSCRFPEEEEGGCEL
T13 sequence (Q07011 24-186): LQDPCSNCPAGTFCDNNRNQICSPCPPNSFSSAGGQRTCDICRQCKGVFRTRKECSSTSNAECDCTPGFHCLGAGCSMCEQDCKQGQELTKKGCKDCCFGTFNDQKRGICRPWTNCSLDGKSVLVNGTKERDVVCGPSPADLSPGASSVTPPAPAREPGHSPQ
T12 sequence (A9YYE7 entry or part of it): as the sequence (Q07011 24-186) above, with P4L, N19S, R50K, T66I, P67S, F69Y, G75E, V149A counted along it
T10 sequence (P25942 21-193 limits assumed): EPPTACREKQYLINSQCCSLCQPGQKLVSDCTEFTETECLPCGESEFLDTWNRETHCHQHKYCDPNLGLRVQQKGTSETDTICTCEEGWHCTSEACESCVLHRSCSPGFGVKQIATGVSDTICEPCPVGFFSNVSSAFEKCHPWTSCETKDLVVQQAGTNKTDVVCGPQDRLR

B1: BCY13582 (biotinylated BCY11863) (peptide)
peptide 1: CP[1Nal][dD]CM[hArg]DWSTP[Hyp]WC
peptide 2: Ac-C[tBuAla]PE[dLys(PYA)]PYCFADPY[Nle]CA
peptide 3: Ac-C[tBuAla]PE[dLys(PYA)]PYCFADPY[Nle]CK([PEG12′-Biotin])
modifications: linker I:1-I:5-I:15, II:1-II:8-II:15, III:1-III:8-III:15 via TATA; also: linker at chain B 5 at chain C 5 to a chain's N-terminus via N-(acid-PEG3)-N-bis(PEG3-azide)
notes: also called test peptide
For B1, the “EC50 (nM), HT1376 co-culture” value in test [1] stood at 0.58 nM. Moreover, the “Emax (fold induction over background), HT1376” value in test [1] came to 57 fold over background. The binding result with GPR39, in the test with HMGB2, with METTL24, with IGFBP1, with APLN and with EVA1C was “no binding (tested: 1 µM)” throughout. The binding result is “no binding” in test [2], “no binding” in test [3], “no binding (tested: 100 nM)” with soluble CD40 and “no binding (tested: 100 nM)” with soluble OX40. The “Arithmetic mean EC50 (nM), HT1376 co-culture” value in test [4] came to 0.58 nM. Further, the “Arithmetic mean EC50 (nM), MDA-MB-468 co-culture” value in test [4] was determined as 0.34 nM. Moreover, the Kd in [5] was determined as 4.23 nM; in [6] it was 8.4 nM.

One may read the Kd as the constant that tells how readily two partners part at equilibrium. Read a low Kd as a tighter complex.

(Values after patent US20230129258A1 (Bicycle, published 2023).)
